Source: patent US20230293680A1 (Genmab, published 2023)
Values joined by “and” are separate entries in the source; they are usually repeats but may differ in a detail not shown here. Equal entries are not always repeated. Values belong to the binder of their own block, whether it stands above or below them.

What was measured:
[1] = biological target: T1, Cyno DR5Mfdel-K420N (cynomolgus monkey DR5 with deletion of amino acids 185-213 and death domain … (cynomolgus monkey)); assay: flow cytometry on CHO-S cells transiently expressing cynomolgus monkey DR5; average of n = 4, SD in brackets
T1 construct: Transiently expressed on the membrane of CHO-S cells; Based on NCBI XP_005562887.1
T1 chain: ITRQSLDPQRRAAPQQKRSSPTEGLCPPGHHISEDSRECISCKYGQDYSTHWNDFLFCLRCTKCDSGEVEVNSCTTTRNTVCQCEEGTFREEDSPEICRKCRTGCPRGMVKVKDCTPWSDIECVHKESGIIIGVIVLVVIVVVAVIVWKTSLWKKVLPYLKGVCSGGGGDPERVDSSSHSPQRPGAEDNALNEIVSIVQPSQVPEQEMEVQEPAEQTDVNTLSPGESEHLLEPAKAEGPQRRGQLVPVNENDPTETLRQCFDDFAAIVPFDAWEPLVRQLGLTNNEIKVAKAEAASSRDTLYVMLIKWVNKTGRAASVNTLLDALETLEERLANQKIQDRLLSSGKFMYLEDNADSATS

DR5sh79-115ECDdelHis = biological target: T2, DR5sh79-115ECDdelHis (human/mouse chimeric); assay: ECLIA, coated DR5sh79-115ECDdelHis, detection with SULFO-TAG anti-human IgG
T2 construct: also called DR5sh79-115ECDdel-FcRbHisCtag

DR5sh139-166ECDdelHis = biological target: T3, DR5sh139-166ECDdelHis (human/mouse chimeric); assay: ECLIA, coated DR5sh139-166ECDdelHis, detection with SULFO-TAG anti-human IgG
T3 construct: also called DR5sh139-166ECDdel-FcRbHisCtag
T3 chain: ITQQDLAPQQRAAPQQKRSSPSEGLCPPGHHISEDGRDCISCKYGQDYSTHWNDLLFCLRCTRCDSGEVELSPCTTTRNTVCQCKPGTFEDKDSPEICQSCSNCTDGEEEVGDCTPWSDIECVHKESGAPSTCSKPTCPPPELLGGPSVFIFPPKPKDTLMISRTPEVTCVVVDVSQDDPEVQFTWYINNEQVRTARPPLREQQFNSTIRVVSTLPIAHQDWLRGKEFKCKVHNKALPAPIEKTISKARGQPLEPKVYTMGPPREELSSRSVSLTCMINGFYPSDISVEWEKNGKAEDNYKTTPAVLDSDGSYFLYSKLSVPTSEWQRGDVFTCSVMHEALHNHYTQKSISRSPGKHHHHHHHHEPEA

binding result (DR5sh79-115ECDdelHis): no binding
B1: IgG1-hDR5-05-E430G (antibody, V domains shown)
VH: QVQLVQSGAEVKKPGASVKVSCKASGFNIKDTHMHWVRQAPGQRLEWIGRIDPANGNTEYDQKFQGRVTITVDTSASTAYMELSSLRSEDTAVYYCARWGTNVYFAYWGQGTLVTVSS
VL: DIQLTQSPSSLSASVGDRVTITCSASSSVSYMYWYQQKPGKAPKPWIYRTSNLASGVPSRFSGSGSGTDFTLTISSLQPEDFATYYCQQYHSYPPTFGGGTKVEIKR
notes: also called second antibody; component of HexaBody-DR5/DR5
EC50 [1]: 0.17 µg/mL and 1.16 nM

binding result (DR5sh139-166ECDdelHis): no binding
B2: IgG1-hDR5-01-G56T-E430G (antibody, V domains shown)
VH: EVQLQQSGAEVVKPGASVKLSCKASGFNIKDTFIHWVKQAPGQGLEWIGRIDPANTNTKYDPKFQGKATITTDTSSNTAYMELSSLRSEDTAVYYCVRGLYTYYFDYWGQGTLVTVSS
VL: EIVMTQSPATLSVSPGERATLSCRASQSISNNLHWYQQKPGQAPRLLIKFASQSITGIPARFSGSGSGTEFTLTISSLQSEDFAVYYCQQGNSWPYTFGQGTKLEIKR
notes: also called first antibody; component of HexaBody-DR5/DR5
EC50 [1]: 0.27 µg/mL and 1.77 nM
